Consider 20 molecules from patent US20230357323A1 (University of Washington, published 2023).

T1: human IL-23 cytokine (p19/p40 heterodimer) (human, UniProt Q9NPF7 20-189; P29460 23-328)
T1 construct: recombinant human IL-23 (R&D 1290-IL) is named for the cell assay; also called native ligand
T1 sequence (looked up) 1: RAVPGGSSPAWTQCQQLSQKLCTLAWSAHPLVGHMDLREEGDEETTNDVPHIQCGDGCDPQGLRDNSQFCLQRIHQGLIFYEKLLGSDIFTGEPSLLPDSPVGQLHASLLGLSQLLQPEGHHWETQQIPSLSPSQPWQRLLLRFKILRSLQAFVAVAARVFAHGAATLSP
T1 sequence (looked up) 2: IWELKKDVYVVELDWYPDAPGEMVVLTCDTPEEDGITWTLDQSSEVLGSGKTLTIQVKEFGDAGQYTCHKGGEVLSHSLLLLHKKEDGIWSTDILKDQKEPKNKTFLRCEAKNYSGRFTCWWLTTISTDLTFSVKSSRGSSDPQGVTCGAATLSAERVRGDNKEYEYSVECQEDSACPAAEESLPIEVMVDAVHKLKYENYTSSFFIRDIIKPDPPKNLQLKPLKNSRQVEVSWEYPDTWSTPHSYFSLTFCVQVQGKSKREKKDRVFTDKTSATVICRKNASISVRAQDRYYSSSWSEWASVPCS

B1: B0402IA (designed binder)
chain: PLWQVFYLLNTCIKRTGDPTCKKLAKALRECLKPGDVKACKEVADKAMDYIRS
B2: rA11dslf02_M1P_R8Q_K35W (designed binder)
chain: PEPEKYLQELCKKYYEGKLSQQEAVEEIRKYARKWGLEAWKLVWYFMQCVKRDIHHHHHH
B3: human IL-23R (hIL-23R), custom construct with C-terminal avi and his tags, biotinylated (receptor, UniProt Q5VWK5 24-355, looked up, not shown: small tags and cut ends)
chain: GITNINCSGHIWVEPATIFKMGMNISIYCQAAIKNCQPRKLHFYKNGIKERFQITRINKTTARLWYKNFLEPHASMYCTAECPKHFQETLICGKDISSGYPPDIPDEVTCVIYEYSGNMTCTWNAGKLTYIDTKYVVHVKSLETEEEQQYLTSSYINISTDSLQGGKKYLVWVQAANALGMEESKQLQIHLDDIVIPSAAVISRAETINATVPKTIIYWDSQTTIEKVSCEMRYKATTNQTWNVKEFDTNFTYVQQSEFYLEPNIKYVFQVRCQETGKRYWQPWSSLFFHKTPETVPQVTSKAFQHDTWNSGLTVASISTGHLTSDNRGDIG
modifications: enzymatically biotinylated via the avi-tag
notes: immobilized on streptavidin tips in BLI, labeled target in FACS; also called human IL-23 receptor
B4: 23R_B (designed binder)
chain: NLWQIFYQLSTILKRTGDPTAKKLLKALAEALKKGDEKALKELAKKATKYIRSHHHHHH
notes: purified from E. coli for BLI
B5: B08 (designed binder)
chain: NLWQIFYVLNTIYKRTGDPTAKKLNKALREALKKHDEKATKELAKKATKYIRS
B6: B0402IC (designed binder)
chain: PLWQIFYLLNTCIKRTGDPTCKVLSKALRECLKKGDVKACSELASKAEKYINS
B7: B0402ID (designed binder)
chain: ELWQVFYLLNTCIKRTCDPTCKKLAKALRECLKKGDLKACKEDAYKALDYIRS
B8: B04dslf02IB (designed binder)
chain: PLWQVFYLLNTCIKRTGDPTCKKLAKALRECLKKGDLKACNELADKAVKYINSHHHHHH
notes: purified form with C-terminal tag; also called B0402IB; BO4dslf02IB
B9: B0402IE (designed binder)
chain: NLWYIFYLLNTCIKRTCDPTCKVLAKALRECLKKGDLKACSELADKAVDYIRS
B10: 23R_A (designed binder)
chain: MESEKYLRELVKKYYEGKLSVQEAVEEVRKYARKKGLEAWMLTWMFMELVKRYIHHHHHH
notes: purified from E. coli for BLI
B11: B0402SB (designed binder)
chain: QLWQIFYLLNTCIKRTGDPTCKKLIKALRECLKKGDAKACDELAKKAVKYIMS
B12: B0402SF (designed binder)
chain: B11 chain with Q1E, D41S, K45D, V48M
B13: B0402SC (designed binder)
chain: B11 chain with G17C, I25K, K45D
B14: B0402SA (designed binder)
chain: B11 chain with Q1E, A37M
B15: B0402SD (designed binder)
chain: B11 chain with Q1P, A37P, D41A, K45D, V48M
B16: B0402SE (designed binder)
chain: B11 chain with I25K, D41K, L43A, K45D
B17: B0402SG (designed binder)
chain: B11 chain with Q1E, A37P, D41A, V48M

Assay [1] has as its target B3. The assay is described as follows: yeast display FACS, SIF incubation then labeled hIL-23R, 5-7 rounds. Here is the method: Yeast libraries were first incubated in SIF at 30C, then washed thoroughly and incubated with labeled hIL-23R, and cells retaining the highest binding signal (top 1-5%) were collected by FACS. Two rounds of selection were performed for each library, and the SIF incubation time and/or concentration of proteases were increased from first to second round. […] Indeed in several libraries we saw a large population of Myc-negative, binding-positive cells. In parallel, we performed two rounds of selection for binding to hIL-23R only, without pre-incubation in SIF. […] Best mutations were included in combinatorial libraries, sorted as above for 5-7 rounds after which individual clones were sequenced. Variants present in the final sorts were expressed in E. coli and characterized (SEQ ID NOS: 70-74 and 153-164).
Yeast strain EBY100 was transformed with each library and vector by electroporation and grow in minimal media selective for the yeast strain (-ura) and the transforming plasmid (-trp).²⁷ Expression was induced with 2% galactose. Surface expression was detected with anti-Myc-FITC (Immunology Consultants Laboratory) conjugate, and binding to biotinylated IL-23R was detected with streptavidin-PE (Invitrogen).
SIF SSM and combinatorial libraries were prepared as follows: after 16-24 hours induction, yeast were spun down, washed with PBSF, resuspended in SIF (recipe described below) at an OD of 2.0, and incubated at 30° C. shaking for 30-90 minutes as noted. After SIF digest, cells were spun down and washed 4 times with 800 uL PBSF, manually aspirating the supernatant each time to ensure complete washing to remove proteases. SIF-treated cells were then treated with target protein as described above.

In assay [2] the target is B3. The assay is described as follows: SPR.
Assay [3] deals with IL-23R on IL-23 reporter cells (Promega IL-23 Bioassay). Nature of the assay: cell-based or functional assay.
Chain of IL-23R on IL-23 reporter cells (Promega IL-23 Bioassay) (Q5VWK5 whole entry): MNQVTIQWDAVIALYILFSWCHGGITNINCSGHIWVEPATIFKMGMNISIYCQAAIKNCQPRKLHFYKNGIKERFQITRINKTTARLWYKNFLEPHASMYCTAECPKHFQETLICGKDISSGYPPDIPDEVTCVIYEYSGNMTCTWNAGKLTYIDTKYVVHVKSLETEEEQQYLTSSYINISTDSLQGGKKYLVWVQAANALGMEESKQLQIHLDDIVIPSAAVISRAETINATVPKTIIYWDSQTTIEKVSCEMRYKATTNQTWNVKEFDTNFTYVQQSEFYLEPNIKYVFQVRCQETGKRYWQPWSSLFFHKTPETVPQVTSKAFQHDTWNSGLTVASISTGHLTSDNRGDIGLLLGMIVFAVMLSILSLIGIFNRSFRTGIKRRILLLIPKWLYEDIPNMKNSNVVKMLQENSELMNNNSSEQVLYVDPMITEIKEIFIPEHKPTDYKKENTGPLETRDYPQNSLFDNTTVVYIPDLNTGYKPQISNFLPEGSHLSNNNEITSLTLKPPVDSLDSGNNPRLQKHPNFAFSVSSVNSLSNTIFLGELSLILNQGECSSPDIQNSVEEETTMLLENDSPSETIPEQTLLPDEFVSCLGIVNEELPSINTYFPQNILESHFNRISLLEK
Assay [4] concerns the target T1, human IL-23 cytokine (p19/p40 …). Nature of the assay: method not stated here (FIG. 2E lists constants of the native ligand).
Assay [5] has the same target. Nature of the assay: table of binding constants on hIL-23R; biolayer interferometry per paragraph 183 and paragraph 210, method not stated separately for this row. As to the method:
(§1) Variants were first screened for relative binding to hIL-23R with biolayer interferometry (BLI). hIL-23R was immobilized on the BLI sensor tips and binding to each variant in solution at a constant concentration (50 nM) was measured to qualitatively determine relative performance of the variants. For the best-performing variants, binding constants (KD, including kₒₙ, and koff) were quantitatively determined with BLI titration experiments in triplicate.
(§2) Qualitative and quantitative assessment of binding affinity was performed using biolayer interferometry (ForteBio Octet™ […] and associated software for analysis). Enzymatically biotinylated target protein (30 nM) was immobilized on streptavidin-coated sensor tips, then sequentially dipped in wells with: buffer only (baseline), inhibitor in solution (association), and buffer only (dissociation). Kinetic constants were determined from the mathematical fit of a 1:1 binding model.

The target of assay [6] is B3. The assay is described as follows: BLI titration, biotinylated hIL-23R on streptavidin tips. As to the method: as §2
The target in assay [7] is B3. Nature of the assay: biolayer interferometry titration, biotinylated hIL-23R immobilised on streptavidin tips, 1:1 fit. Here is the method: as §1, §2
The target in assay [8] is B3. Nature of the assay: biolayer interferometry titration, biotinylated hIL-23R immobilised on streptavidin tips. Here is the method: as §1, §2
Assay [9] concerns the target IL-23R on IL-23 reporter cells (Promega IL-23 Bioassay). Nature of the assay: cell-based or functional assay. This is another data set of the same source.
Assay [10] addresses B3. The assay is described as follows: yeast display FACS.

Residue numbers refer to the chain shown, from its start. No end group written: not given here.

On to B1, for which the binding result in assay [1] is given as “binds”.

B2 came in with a Kd in assay [2] of 0.075 nM.

As for CKVKCGPVEFEATERWMCFYWYNKYC (designed binder, not fully specified (bridges); cysteine pairing not given here) [23R_mini_17_C11], in assay [3], the “Fold better than competitor (IC50 against that of PTG compound C, IL-23 reporter cell assay) [table]” value (shortened to “Fold better than competitor”) stood at 27 fold and the “IC50; inhibition of luciferase signal of IL-23 reporter cells stimulated with 8 ng/mL human IL-23 [table]” value (shortened to “IC50; inhibition”) worked out at 281 nM.

In assay [4], B3 showed a Kd of 1.7 nM. Also, in assay [5], the equilibrium dissociation constant (Kd) amounted to 1.69 nM, the koff is 0.0013 s⁻¹ and the on-rate constant (kon) came to 780000 M⁻¹ s⁻¹.

Consider B4, for which, in assay [6], the Kd was found to be 70 nM. Moreover, in [7], the dissociation constant Kd is 50 nM, the koff turned out to be 0.015 s⁻¹ and the kon came to 500000 M⁻¹ s⁻¹.

B5 registered a Kd in assay [8] of 0.046 nM. Also, in [7], the affinity, expressed as Kd, was 0.046 nM; the off-rate constant (koff) was found to be 4.6e-05 s⁻¹; the kon was determined as 990000 M⁻¹ s⁻¹.

B6: the binding result in assay [1] was “binds”.

In the case of B7, the binding result in [1] is recorded as “binds”.

With B8, the Kd in [2] is below 0.001 nM. Besides, in assay [9], the “IC50 (read off the curve); IL-23-stimulated luciferase signal in IL-23 reporter cells [lower graph]” value is around 40 nM. In [3], the “Fold better than competitor” value is 484 fold and the “IC50; inhibition” value was determined as 16 nM.

Take ASPELKETCERLERLGMERWLILWCKQRAEEG (designed binder) [23R_mini_08]: the binding result in assay [10] is listed as “binds”.

Regarding B9, the binding result in assay [1] is on record as “binds”.

In turn, B10 displayed a Kd in assay [6] of 26 nM. Moreover, in assay [7], the koff was 0.014 s⁻¹ and the kon stood at 560000 M⁻¹ s⁻¹.

As to CRVCKNGFCVDARECWMAYYLLNQYN (designed binder, not fully specified (bridges); cysteine pairing not given here) [23R_mini_14_C4], in assay [3], the “Fold better than competitor” value was 16 fold and the “IC50; inhibition” value was 487 nM.

In the case of B11, the binding result in assay [1] is on record as “binds”.

Regarding B12, the binding result in assay [1] is on record as “binds”.

In the case of B13, the binding result in assay [1] is on record as “binds”.

With B14, the binding result in assay [1] is recorded as “binds”.

For B15, the binding result in assay [1] is on record as “binds”.

In the case of B16, in assay [1], the binding result is recorded as “binds”.

As for B17, in assay [1], the binding result was “binds”.
